According to patent US20260007698A1 (published 2026):

Columns and labels:
[1] = target: T1, VCY (Variable charge Y-linked) CT antigen; peptide VCY-23 peptide on HLA-A*11:01 (human); assay: multimer staining
T1 peptide: SSQPSPSGPK

[2] = target: T2, VCX; peptide VCX-23 peptide on HLA-A*11:01 (human); assay: killing
T2 peptide: SSQPSPSDPK

B1: VCY-23 specific TCR (TCR, V domains shown)
Valpha: RKEVEQDPGPFNVPEGATVAFNCTYSNSASQSFFWYRQDCRKEPKLLMSVYSSGNEDGRFTAQLNRASQYISLLIRDSKLSDSATYLCVVTFDNYGQNFVFGPGTRLSVLP
Vbeta: NAGVTQTPKFRVLKTGQSMTLLCAQDMNHEYMYWYRQDPGMGLRLIHYSVGEGTTAKGEVPDGYNVSRLKKQNFLLGLESAAPSQTSVYFCASSYTYNYNEQFFGPGTRLTVL
[1]
  binding result: recognises
[2]
  binding result: no recognition
